The target in assay [1] is cynomolgus β6 on transfected HEK-293 cells (cynomolgus). Briefly: FACS, purified mAb, transfected HEK-293 (parental: 2). On the technique in general: In flow cytometry, cells or beads pass a laser one at a time.
Assay [2] has as its target mouse αVβ6 on cells (mouse) (UniProt P43406). Briefly: FACS, purified mAb, transfected HEK-293 (parental: 74).
For assay [3] the target is unchanged. Briefly: FACS, K562 cells expressing mouse αVβ6 (parental K562: 33).

Chain of mouse αVβ6 on cells (mouse) (P43406 31-1044, chain 1 of 2): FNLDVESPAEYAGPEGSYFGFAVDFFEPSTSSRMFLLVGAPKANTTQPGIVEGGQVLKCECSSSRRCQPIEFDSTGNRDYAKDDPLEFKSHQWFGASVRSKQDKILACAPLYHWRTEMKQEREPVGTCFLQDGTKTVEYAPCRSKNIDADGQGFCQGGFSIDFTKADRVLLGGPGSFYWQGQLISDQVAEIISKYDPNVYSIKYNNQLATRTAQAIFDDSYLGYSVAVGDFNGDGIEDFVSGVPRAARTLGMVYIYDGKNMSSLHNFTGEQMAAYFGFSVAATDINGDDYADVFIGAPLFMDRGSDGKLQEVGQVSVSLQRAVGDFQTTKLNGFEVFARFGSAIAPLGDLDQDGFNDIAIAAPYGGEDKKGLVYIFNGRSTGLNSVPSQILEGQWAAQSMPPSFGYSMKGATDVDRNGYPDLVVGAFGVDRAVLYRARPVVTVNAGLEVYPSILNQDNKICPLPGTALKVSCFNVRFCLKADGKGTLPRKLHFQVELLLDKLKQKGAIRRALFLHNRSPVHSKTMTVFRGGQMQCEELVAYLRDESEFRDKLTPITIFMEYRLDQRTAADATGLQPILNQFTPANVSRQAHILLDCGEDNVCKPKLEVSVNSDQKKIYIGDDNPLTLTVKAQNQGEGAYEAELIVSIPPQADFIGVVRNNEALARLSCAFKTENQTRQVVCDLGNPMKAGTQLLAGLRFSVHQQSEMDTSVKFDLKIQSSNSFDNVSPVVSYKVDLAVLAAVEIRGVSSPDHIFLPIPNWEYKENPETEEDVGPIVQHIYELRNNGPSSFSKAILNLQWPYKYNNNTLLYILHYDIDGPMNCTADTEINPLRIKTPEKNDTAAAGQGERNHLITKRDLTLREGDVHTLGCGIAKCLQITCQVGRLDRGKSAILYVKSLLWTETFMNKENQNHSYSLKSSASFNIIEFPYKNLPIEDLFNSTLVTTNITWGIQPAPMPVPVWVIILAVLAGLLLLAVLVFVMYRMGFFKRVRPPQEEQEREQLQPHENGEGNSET
Chain of mouse αVβ6 on cells (mouse) (Q9Z0T9 22-787, chain 2 of 2, further chain): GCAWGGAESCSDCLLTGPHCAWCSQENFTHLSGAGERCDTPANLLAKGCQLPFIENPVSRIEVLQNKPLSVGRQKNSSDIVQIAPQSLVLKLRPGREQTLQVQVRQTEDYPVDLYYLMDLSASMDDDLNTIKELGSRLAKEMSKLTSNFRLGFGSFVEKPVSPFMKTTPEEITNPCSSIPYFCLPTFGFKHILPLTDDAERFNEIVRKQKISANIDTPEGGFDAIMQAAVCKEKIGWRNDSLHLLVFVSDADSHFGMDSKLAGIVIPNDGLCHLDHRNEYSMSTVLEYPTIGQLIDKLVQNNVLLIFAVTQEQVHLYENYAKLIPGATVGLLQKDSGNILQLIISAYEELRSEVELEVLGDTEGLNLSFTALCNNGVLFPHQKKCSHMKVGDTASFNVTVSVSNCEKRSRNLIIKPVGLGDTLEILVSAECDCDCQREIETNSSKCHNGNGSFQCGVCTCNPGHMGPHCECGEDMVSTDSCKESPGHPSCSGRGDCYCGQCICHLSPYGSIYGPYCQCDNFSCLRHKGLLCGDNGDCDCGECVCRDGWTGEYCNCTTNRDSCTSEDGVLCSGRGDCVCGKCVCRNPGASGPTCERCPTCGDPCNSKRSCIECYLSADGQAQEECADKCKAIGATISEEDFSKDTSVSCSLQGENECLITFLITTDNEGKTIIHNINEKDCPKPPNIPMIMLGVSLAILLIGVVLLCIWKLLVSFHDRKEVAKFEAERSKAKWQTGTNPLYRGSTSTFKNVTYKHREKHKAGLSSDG

B1: sc 133 (antibody, V domains shown)
VH: QVQLVQSGAEVKKPGASVKVSCKASGYTFTGYYMHWVRQAPGQGLEWMGWINPKSGDTNYAQKFQGRVTLTRDTSTSTAYMELSRLRSDDTAVYYCARRLDVWGQGTTVTVSS
VL: QSVLTQPPSVSAAPGQKVTISCSGSSSNIGNNYVSWYQQLPGTAPKLLIYDNNKRPSGIPDRFSGSKSGTSATLGITGLQTGDEADYYCGTWNSSLSAGYVFGTGTKVTV
As for B1, in assay [1], the percent of cells shifted came to 10%.

B2: sc 264 (antibody, V domains shown)
VH: QVQLQESGPGLVKPSQTLSLTCTVSGGSISSGGYYWSWIRQHPGKGLEWIGYIYYSGRTYNNPSLKSRVTISVDTSKNQFSLKLSSVTAADTAVYYCARVATGRGDYHFYAMDVWGQGTTVTVSS
VL: SYELTQPSSVSVSPGQTARITCSGDVLAKKSARWFHQKPGQAPVLVIYKDSERPSGIPERFSGSSSGTTVTLTISGAQVEDEAAYYCYSAADNNLVFGGGTKLTVL
For the molecule B2, the percent of cells shifted in assay [2] is 63%. Moreover, in assay [3], the Geometric Mean Shift (arbitrary units) worked out at 160.

The values are drawn from patent US20160319032A1.
